Measured values from patent US10654918B2, “Inflammatory disease diagnosis and methods of treatment using down-regulators of lipopolysaccharide-responsive beige-like anchor” (University of South Florida, priority 2013, dated 2020).

Experiments:
Type in all cases: cell-based, human
Raji B cells [1] = assay: Viable cell count of Raji B cells and Rajisi9 B cells; conditions: 10 cells per well, 11 days
Procedure: FIG. 20 is a graph showing knockdown of LRBA promotes B cell proliferations. Raji B cells and Rajisi9 B cells (Raji B cells stably transfected with shRNA plasmid against LRBA) were culture on a 96 well plate with 10 cells per well for 11 days. Viable cells were counted by the Trypan blue live/dead discrimination method with a Hemocytometer.
Raji B cells and Rajisi9 B cells (Raji B cells stably transfected with shRNA plasmid against LRBA) were cultured in a 96 well plate with 10 cells per well for 9 days. Blockage of LRBA promotes THP1 cell proliferation. THP1 cells (human acute monocytic leukemia cell line) were cultured in 100 μl of RPMI1640 media with or without human LRBA polyclonal IgG antibody at 0.67 μg/ml or the same amount of human actin polyclonal IgG antibody on a 96 well plate with 10 cells per well for 9 days. Viable cells were counted by the trypan blue live/dead discrimination method with a hemocytometer.

Raji B cells [2] = assay: Cytokines of Raji and Raji-9 cells treated with LPS (ELISA, CBA)
Procedure: FIG. 21 are graphs showing knockdown of LRBA increases the TNFα levels in Raji B (Burkitt's lymphoma) cells. Raji B cells and Raji-9 (stably transfected with shRNA plasmid against LRBA) B cells were treated with LPS (1 μg/ml). The TNFa concentrations were measured by Human TNFα DuoSet ELISA kit (R&D) following the manufacture's instruction. A. Culture supernatant; B. Cell lysate. #=p<0.07, *=p<0.05, **=p<0.005.
FIGS. 48(A)-(I). Knockdown of LRBA influences the levels of cytokines. A. Raji cells (LRBA WT or KD) were seeded in a 24 well plate wells and stimulated with LPS for 15 min (1), 30 min (2) and 1 hr (3) with 0.26 million cells in each well or for 2 h (4), 4 h (5) and 24 h (6) with 0.2 million cells in each well, 0.2 million of cells were plated in each well. ELISA and CBA assays of TNFα and IL-10. Cells were treated as in A. 0.2×10^6 cells, timepoint. 500 uL total volume medium. Duoset ELISA human TNF-a kit protocol was followed for cell culture supernatant. Blues: Raji (♦); Red: Raji9 (▪). Data are representative of 2 to 5 separate experiments.
Cell culture supernatants were directly used to detect human Th1 and Th2 cytokines (IL-2, IL-4, IL-5, IL-6, IL-10, TNFα and IFN-γ) using the human Th1/Th2 cytokine bead-array kit (BD Biosciences, San Jose, Calif.) according to the manufacturer's instructions. The TNF[…] concentrations were also measured by Human TNF[…] DuoSet ELISA kit (R&D, Catalog #DY210).

A549 cells = assay: Western blot of A549 and A549 pLAsiGFP cells treated with LPS; conditions: for TLR4 levels (Western blot): vs untransfected A549 cells
Procedure: (§1) FIGS. 4A-B are a blot and graph showing knockdown of LRBA increases the TNFα levels in A549 cells (adenocarcinomic human alveolar basal epithelial cells). A549 cells and A549 pLAsiGFP cells (stably transfected with shRNA plasmid against LRBA) were treated with LPS (1 μg/ml). The TNFα concentrations were detected by Western blot. Cells were cultured in 6-well plates and stimulated with LPS (1 μg/ml) for different time as shown, then lysed with RIPA buffer. Western blots were carried out. TNFα antibody (sc-1351. Santa Cruz Biotechnology, Santa Cruz, USA) was used at 1:500 ratio and incubated at 4° C. overnight. BioRad ChemiDoc XRS and Quantity One software were used to acquire gel image and measure band relative intensity. (A) Western blot. 1. A549 No LPS, 2. A549 LPS 30 min, 3. A549 LPS 1 hr, 4. A549 LPS 2 h, 5. A549 LPS 4 h, 6. A549 LPS 24 h, 7. A549 pLAsiGFP LPS 2 h, 8. A549 pLAsiGFP LPS 4 h, 9. A549 pLAsiGFP LPS 24 h. (B) Band intensity quantification from A.
as §1, with “FIG. 17(A)-(B)” for “FIGS. 4A-B”, “series of graphs” for “blot and graph”, “TLR4” for “TNFα”, “cells.” for “cells (adenocarcinomic human alveolar basal epithelial cells).”
FIGS. 31(A) and (B) are a blot and graph showing knockdown of LRBA decreases the total NFκB levels in A549 cells. A549 LIRII cells (stably transfected with pLRBA-VHS) and A549 pLAsiGFP cells (stably transfected with shRNA plasmid against LRBA) were treated with LPS (1 μg/ml). The NFκB concentrations were detected by Western blot. Cells were cultured in 6-well plates and stimulated with LPS (1 μg/ml) for different time as shown, then lysed with RIPA buffer. Western blots were carried out. NF-κB2 p100/p52 Antibody #4882 (Cell Signaling Technology, Danvers, Mass., USA) was used at 1:500 ratio and incubated at 4° C. overnight. BioRad ChemiDoc XRS and Quantity One software were used to acquire gel image and measure band relative intensity. A. Western blot. B. Band intensity quantification from A.

B1: LRBA shRNA: shRNA plasmid against LRBA; targeted LRBA sequence SEQ ID No. 15 GGGATATTGTAGAAACTGTCTTT (nucleic acid)
sense: GGGATATTGTAGAAACTGTCTTTTTCAAGAGAAAAGACAGTTTCTACAATATCCCTTTTTT
antisense: CCCTATAACATCTTTGACAGAAAAAGTTCTCTTTTCTGTCAAAGATGTTATAGGGAAAAAA
Raji B cells [1]
  B cell proliferations (viable cells, Trypan blue): promotes
Raji B cells [2]; LPS stimulation for 15 min to 24 h, vs untransfected Raji B cells
  TNFα levels in cell culture supernatants and cell lysates (ELISA): significantly increased
Raji B cells [2]; Raji cells, LPS
  secreted levels of IL-10 (CBA): significantly increased
  secreted levels of TNFα (CBA): significantly increased
A549 cells; 2 h and 4 h after LPS stimulation (1 μg/ml)
  TLR4 levels (Western blot): increases
A549 cells; 24 h after LPS
  TLR4 levels (Western blot): no difference
A549 cells; LPS 1 μg/ml, A549 pLAsiGFP cells
  total NFκB levels (Western blot): decreases
A549 cells; LPS 1 μg/ml, A549 pLAsiGFP vs A549
  TNFα levels (Western blot): increases
